Measurements published in US20250034248A1 (ALBERT EINSTEIN COLLEGE OF MEDICINE, published 2025).
Read-outs that look alike come from different tables or passages of the source.

Legend:
[1] = target: T1, mouse Tim-3 expressed on cell lines (mouse, UniProt Q8VIM0 20-281); test: FACS on cell lines expressing mouse Tim-3
T1 construct: whole, on cells

human Tim-3 protein [2] = target: T2, human Tim-3 protein (human, UniProt Q8TDQ0 22-202, limits assumed); test: surface plasmon resonance
human Tim-3 protein [3] = target: T2, human Tim-3 protein; test: Surface plasmon resonance
human Tim-3 protein [4] = target: T2, human Tim-3 protein; test: surface plasmon resonance; remark: listed apart in the source

binding result [1] | koff (human Tim-3 protein [2]) | kon (human Tim-3 protein [2]) | Kd (human Tim-3 protein [3]) | koff (human Tim-3 protein [4]) | kon (human Tim-3 protein [4]) | Binder
no binding | 2.35e-05 s⁻¹ | 187000 M⁻¹ s⁻¹ | 0.13 nM |  |  | mAb 50B5 (antibody, V domains shown, Mouse hybridoma antibody, IgG1 with kappa chain) VH: EVQLQQSGPELVKPGASMKISCKASGYSFTGYTINWVKQSHGKNLEWIGLFNPYNGGTTFNQKFKGKATLTVDKSSSTAYMELLSLTSEDSAVYYCARRYYGYDAMDYWGQGTSVTVSS VL: NIMMTQSPSSLAVSAGEKVTMSCKSSQSVLYSSNQKNHLAWYQQKPGQSPKLLIYWASTRESGVPDRFTGSGSGTDFTLTISSVQAEDLAVYYCHQYLSSYTFGGGTKLEIK
 |  |  | 0.32 nM | 0.00029 s⁻¹ | 910000 M⁻¹ s⁻¹ | mAb 15B4 (antibody, V domains shown, Mouse hybridoma antibody, IgG1 with kappa chain) VH: EVQLQQSGAEVVRPGALVKLSCKASGFNIKDYYMHWVRQRPEQGLEWIGWIDPENDNTIYDPKFQDRASITADTSSNTAYLQLSSLTSEDTAVYYCARDFGYVAWLVYWGQGTLVTVSA VL: DIVMTQSQEFMSTSVGDRVSITCKASQNVDTAVAWYQQKPGQSPKLLIYSASNRYTGVPDRFTGTGSGTDFTLTINNMQSEDLADYFCQQYSSYPTFGGRTKLEIKR
